Laboratory results published in article PMC11512355.

Target: recombinant porcine astrovirus 4 (PoAstV4) capsid spike protein (porcine astrovirus 4)
Assay: SEC; Superdex 200 16/600 column in TBS pH 8.0 (10 mM Tris-HCl, 150 mM NaCl), compared with BioRad gel filtration standards

recombinant porcine astrovirus 4 (PoAstV4) capsid spike protein (domain or fragment)
stoichiometry N: 2
